This is an account of results in patent publication US11788108B2, “CMP-dependent sialidase activity” (Roche Diagnostics Operations, Inc., priority 2014, dated 2023).

Data set [1] concerns the target T1, α-2,6-sialyltransferase from rat liver (Rattus norvegicus, UniProt P13721).
T1 construct: host or cells: rat liver
T1 sequence (P13721 1-403): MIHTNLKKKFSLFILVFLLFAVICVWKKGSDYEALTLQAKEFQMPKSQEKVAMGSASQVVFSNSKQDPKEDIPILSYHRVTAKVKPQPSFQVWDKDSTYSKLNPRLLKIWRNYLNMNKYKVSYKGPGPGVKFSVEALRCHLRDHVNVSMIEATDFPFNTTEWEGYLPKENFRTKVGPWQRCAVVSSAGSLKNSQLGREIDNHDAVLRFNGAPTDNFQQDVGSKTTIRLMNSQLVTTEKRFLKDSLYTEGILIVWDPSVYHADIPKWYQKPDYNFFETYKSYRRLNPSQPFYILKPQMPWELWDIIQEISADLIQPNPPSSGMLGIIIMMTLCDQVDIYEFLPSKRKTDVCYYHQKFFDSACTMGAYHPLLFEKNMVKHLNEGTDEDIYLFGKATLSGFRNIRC
The following applies: each inhibitor at 0.25 mM; cited from earlier work.

The next data set addresses T2, Δ89 hST6Gal-I (Homo sapiens, UniProt P15907).
T2 construct: Erythropoietin signal peptide (Epo) (N, cleaved yes); AP spacer (N, cleaved yes); made in house; host or cells: HEK 293 cells (transient expression, secreted)
T2 sequence (P15907 90-406): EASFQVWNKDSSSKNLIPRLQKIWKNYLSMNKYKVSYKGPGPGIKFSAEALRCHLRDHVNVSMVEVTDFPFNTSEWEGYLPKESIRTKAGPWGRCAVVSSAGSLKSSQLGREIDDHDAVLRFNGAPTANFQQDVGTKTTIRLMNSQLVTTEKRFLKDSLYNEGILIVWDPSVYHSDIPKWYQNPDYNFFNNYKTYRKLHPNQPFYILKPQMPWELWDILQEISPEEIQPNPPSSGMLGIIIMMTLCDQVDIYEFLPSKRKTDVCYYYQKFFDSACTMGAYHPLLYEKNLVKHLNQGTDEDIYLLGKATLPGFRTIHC
Nature of the data set: Inhibition of sialidase activity of Δ89 hST6Gal-I by CTP. Format: biochemical. As for the experimental part: The compound cytidine-5′-triphosphate (CTP) is a known potent inhibitor of sialyltransferases (Scudder P R & Chantler E N BBA 660 (1981) 136-141). […] In the first phase of the experiment the sialylation of IgG4 MAB by Δ89 hST6Gal-I was performed to achieve a high content of G2+2SA (see Example 10). After 7 h of incubation the G2+2SA content was 94%. Subsequently, CTP was added to inhibit the sialidase activity of Δ89 hST6Gal-I (final concentration of CTP: 0.67 mM). At different times samples were taken and the content of G2+0SA, G2+1SA and G2+2SA was determined by mass spectrometry. […] After 72 h of incubation 73% of G2+2SA were still present.

The next data set concerns IgG1 MAB G2+2SA. Description: Sialidase activity on IgG1 MAB G2+2SA in the presence and absence of CMP. The following applies: for sialidase activity in the presence of CMP: CMP 10-fold molar excess, 37° C., pH 6.5, 125 μg enzyme/1,250 μg IgG1 MAB. Format: biochemical. The protocol:
Cytidine monophosphate (5′-CMP, =CMP) is a product of the reaction catalyzed by sialyltransferase enzymes, generated in the course of the glycosyltransferase reaction from the co-substrate CMP-NANA. With incubation time of a sialylation reaction CMP accumulates in the reaction mixture.
To an amount of 1,250 μg (in 194 μL) highly sialylated IgG1 MAB according to Example 12 with an incubation period for sialylation of 8 h, 125 μg sialyltransferase variant (30 μg/300 μg IgG1 MAB) was added.
Different N-terminally truncated hST6Gal-I enzyme variants were tested for CMP-dependent sialidase activity: • Δ89 hST6Gal-I (Example 9) • Δ108 hST6Gal-I (Example 9) • Δ57 hST3Gal-I (obtained from R&D Systems)
Four different experiments were made using Δ89 hST6Gal-I (16.8 μL with 125 μg), Δ108 hST6Gal-I (17.3 μL with 125 μg), Δ57 hST3Gal-I (20.1 μL with 125 μg) and a negative control (no enzyme, 20.1 μL ultrapure water). The enzymes were tested for sialidase activity in the absence and presence of CMP (10-fold excess based on molarity). The concentrations were as shown as follows:
The samples were incubated at 37° C. in 20 mM sodium citrate, 35 mM Tris pH 6.5. Aliquots were taken as samples after different incubation times, and were analyzed.
To analyze the degree of sialylation of IgG1 MAB in the samples, 124 μL denaturing buffer (6 M Guanidinium chloride in water) and 30 μL TCEP (=tris(2-carboxyethyl)phosphine; 0.1 mM, diluted in denaturing buffer) were added to 76 μL (corresponding to 250 μg IgG1 MAB) and the sample was incubated at 37° C. for 1 h. After that the sample was buffered in electrospray medium (20% ACN (=acetonitrile), 1% FA (=formamide)) using pre-equilibrated ILLUSTRA™ NAP™5-Columns (GE-Healthcare). Subsequently the sample was analyzed by electrospray ionization mass spectrometry and the content of G2+0SA, G2+1SA and G2+2SA N-glycans was determined. A Synapt G2 HDMS device (Waters UK) was used, the software used was MassLynx V 4.1.

The next data set deals with asialofetuin. Nature of the data set: Test for sialyltransferase enzymatic activity (transfer of sialic acid from CMP-9-fluoro-NANA to asialofetuin). The conditions noted are these: recombinant enzyme purified from HEK cells. Format: biochemical. The protocol:
Asialofetuin (desialylated fetuin, Roche Applied Science) was used as acceptor and CMP-9-fluoro-NANA (CMP-9-fluoresceinyl-NeuAc) was used as donor substrate (Brossmer, R. & Gross H. J. (1994) Meth. Enzymol. 247, 177-193). Enzymatic activity of a sialyltransferase was determined by measuring the transfer of sialic acid from the donor compound to asialofetuin. The reaction mix (35 mM MES, pH 6.0, 0.035% TRITON™ X-100 (C16H26O2), 0.07% BSA) contained 2.5 μg of enzyme sample, 5 μL asialofetuin (20 mg/mL) and 2 μL CMP-9-fluoro-NANA (1.0 mg/mL) in a total volume of 51 μL. The reaction mix was incubated at 37° C. for 30 min. The reaction was stopped by the addition of 10 μL of the inhibitor CTP (10 mM). The reaction mix was loaded onto a PD10 desalting column equilibrated with 0.1 M Tris/HCl, pH 8.5. Fetuin was eluted from the column using the equilibration buffer. The fractions size was 1 mL. The concentration of formed fetuin was determined using a fluorescence spectrophotometer. Excitation wave length was 490 nm, emission was measured at 520 nm. Enzymatic activity was expressed as RFU (relative fluorescence unit). 10,000 RFU/μg is equivalent to a specific activity of 0.0839 nmol/μg×min.

The target in data set [2] is T3, CMP-dependent sialidase activity of Δ89 hST6Gal-I (Homo sapiens, UniProt P15907).
T3 construct: Erythropoietin signal peptide (Epo) (N, cleaved yes); AP spacer (N, cleaved yes); made in house; host or cells: HEK 293 cells (transient expression, secreted)
T3 sequence (P15907 90-406): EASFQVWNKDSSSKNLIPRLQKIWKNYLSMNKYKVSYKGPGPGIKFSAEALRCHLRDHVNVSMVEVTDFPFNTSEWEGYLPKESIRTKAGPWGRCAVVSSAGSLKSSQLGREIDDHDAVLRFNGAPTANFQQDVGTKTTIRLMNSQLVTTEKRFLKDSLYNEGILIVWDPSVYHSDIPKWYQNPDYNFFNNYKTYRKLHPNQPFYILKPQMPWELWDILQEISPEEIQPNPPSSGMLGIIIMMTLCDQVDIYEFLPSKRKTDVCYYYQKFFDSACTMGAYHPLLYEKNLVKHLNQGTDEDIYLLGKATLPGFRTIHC
Nature of the data set: Sialylation of IgG4 MAB using Δ89 hST6Gal-I in the presence of phosphatase enzymatic activity. The conditions noted are these: CMP degraded by dephosphorylating enzymes. The class given is biochemical. The source says: Suppression of CMP-dependent sialidase activity of Δ89 hST6Gal-I was studied by continuous removal of CMP formed during the reaction.
In the experiments the enzymes (i) 5′-nucleotidase (EC 3.1.3.5) having a wide specificity for 5′-nucleotides, and (ii) alkaline phosphatase (EC 3.1.3.1) (both provided by commercial suppliers) were used. The particular 5′-nucleotidase used here is also known as ecto-5′-nucleotidase or CD73 (Cluster of Differentiation 73), in humans encoded by the NT5E gene. Both enzymes dephosphorylate CMP, i.e. catalyze hydrolysis of the phosphoester bond in CMP. In the experiments of this Example the enzymes were used to degrade CMP generated by the sialyltransferase reaction from the co-substrate CMP-NANA.
To 1,000 μg IgG4 MAB (182 μL) 500 μg CMP-NANA (3 mg/mL, 166.7 μL), 100 μg Δ89 hST6Gal-I (13.4 μL, 30 μg/300 μg IgG4 MAB) and different amounts of nucleotidase (Nu) and alkaline phosphatase (AP) were added. As Zn^2+ ions are essential for the activity of AP, these were added to a final concentration of 0.1 mM). The buffer used was 20 mM sodium acetate/Tris, pH 6.5. […]
After addition of the respective amounts of enzymes the samples were incubated at 37° C. […] Then the sample was analyzed by electrospray ionization mass spectrometry, and the content of G2+0SA, G2+1SA and G2+2SA N-glycans was determined. […]

Another data set deals with IgG4 MAB. Nature of the data set: Sialylation of humanized monoclonal antibody IgG4 MAB using Δ89 hST6Gal-I, mass spectrometry. The class given is biochemical. The protocol: A highly galactosylated humanized monoclonal antibody IgG4 MAB was used in sialylation experiments. The reaction mixture contained IgG4 MAB (300 μg in 55 μL 35 mM sodium actetate/Tris buffer pH 7.0), the donor substrate CMP-NANA (150 μg in 50 μL water) and sialyltransferase (30 μg Δ89 hST6Gal-I in 20 mM potassium phosphate, 0.1 M NaCl, pH 6.5). The samples were incubated at 37° C. for a defined time. To stop the reaction the samples were frozen at −20° C. For mass analysis 100 μL denaturing buffer (6 M guanidinium chloride) and 30 μL TCEP (=tris(2-carboxyethyl)phosphine; 0.1 mM, diluted in denaturing buffer) were added to the samples and the samples were incubated at 37° C. for 1 h. The samples were buffered in electrospray medium [20% ACN (=acetonitrile), 1% FA (=formamide)] using pre-equilibrated Illustra™ Nap5-Columns (GE-Healthcare). Samples were analyzed by electrospray ionization mass spectrometry and the content of G2+0SA, G2+1SA and G2+2SA N-glycans was determined. A Micromass Q-Tof Ultima and a Synapt G2 HDMS device (Waters UK) were used, the software used was MassLynx V 4.1. To determine the kinetics of the sialylation the reaction was incubated up to 72 h.

As to `Nc1ccn([C@@H]2O[C@H](CO)[C@@H](O)[C@H]2OP(=O)(O)O)c(=O)n1` [2′-CMP], the “inhibition of α-2,6-sialyltransferase” value in data set [1] is 40%.

`Nc1ccn([C@@H]2O[C@H](CO)[C@@H](OP(=O)(O)O)[C@H]2O)c(=O)n1` [3′-CMP]: the “inhibition of α-2,6-sialyltransferase” value in data set [1] is 39%.

For the molecule `Nc1ccn([C@@H]2O[C@H](COP(=O)(O)OP(=O)(O)OP(=O)(O)O)[C@@H](O)[C@H]2O)c(=O)n1` [CTP, cytidine-5′-triphosphate], the “degradation of G2+2SA caused by the sialidase activity” value on Δ89 hST6Gal-I (CTP 0.67 mM, compared to inhibitor-free conditions) is given as “significantly reduced”. The “G2+2SA still present” value at Δ89 hST6Gal-I (after 72 h of incubation, CTP final concentration 0.67 mM added after 7 h) came out at 73%.

B1: Δ108 hST6Gal-I: soluble human β-galactoside-α-2,6-sialyltransferase I variant lacking N-terminal amino acids from position 1 to 108 (protein)
chain: LQKIWKNYLSMNKYKVSYKGPGPGIKFSAEALRCHLRDHVNVSMVEVTDFPFNTSEWEGYLPKESIRTKAGPWGRCAVVSSAGSLKSSQLGREIDDHDAVLRFNGAPTANFQQDVGTKTTIRLMNSQLVTTEKRFLKDSLYNEGILIVWDPSVYHSDIPKWYQNPDYNFFNNYKTYRKLHPNQPFYILKPQMPWELWDILQEISPEEIQPNPPSSGMLGIIIMMTLCDQVDIYEFLPSKRKTDVCYYYQKFFDSACTMGAYHPLLYEKNLVKHLNQGTDEDIYLLGKATLPGFRTIHC
modifications: delta108 truncation variant of hST6Gal-I
Take B1: the “sialidase activity in the presence of CMP” value with IgG1 MAB G2+2SA was “did not show any sialidase activity”. In addition, in the data set with asialofetuin, the specific activity is recorded as above 600 RFU/pg.

B2: Δ89 hST6Gal-I: human β-galactoside-α-2,6-sialyltransferase I variant with truncation deletion of the first 89 N-terminal amino acids (protein)
chain: EASFQVWNKDSSSKNLIPRLQKIWKNYLSMNKYKVSYKGPGPGIKFSAEALRCHLRDHVNVSMVEVTDFPFNTSEWEGYLPKESIRTKAGPWGRCAVVSSAGSLKSSQLGREIDDHDAVLRFNGAPTANFQQDVGTKTTIRLMNSQLVTTEKRFLKDSLYNEGILIVWDPSVYHSDIPKWYQNPDYNFFNNYKTYRKLHPNQPFYILKPQMPWELWDILQEISPEEIQPNPPSSGMLGIIIMMTLCDQVDIYEFLPSKRKTDVCYYYQKFFDSACTMGAYHPLLYEKNLVKHLNQGTDEDIYLLGKATLPGFRTIHC
modifications: delta89 truncation variant of hST6Gal-I
notes: human β-galactoside-α-2,6-sialyltransferase I variant with truncation deletion of the first 89 N-terminal amino acids
For B2, the “sialidase activity in the presence of CMP” value in the data set on IgG1 MAB G2+2SA is “showed a CMP-dependent sialidase activity”. The “degradation of G2+2SA without CMP” value with IgG1 MAB G2+2SA (reaction mixture without CMP, incubation for 46 h) is recorded as “no degradation”. The specific activity in the data set with asialofetuin came to 3.75 nmol/pg/min. For the same molecule, the “intrinsic sialidase activity in the absence of CMP” value in data set [2] is recorded as “no intrinsic sialidase activity”. Also, in the data set with IgG4 MAB (after 2 h of incubation, 37° C., 30 μg enzyme/300 μg IgG4 MAB), the “content of the bi-sialylated form G2+2SA” value is recorded as 88%. Besides, the “G2+2SA content” value in the data set on IgG4 MAB (after 7 h of incubation, before CTP addition) is 94%. The “G2+1SA content” value in the data set with IgG4 MAB (after an incubation of 48 h, 37° C.) is 71%.
